What all share (assay): FRET or BRET
For orientation: BRET reads energy transfer from a luciferase to a nearby fluorophore.

For assay [1], the target named is E. coli ribosomal pre-translocation complex lacking an A-site tRNA (PRE^−A complex) (E. coli) (UniProt P0A7L0).
Assay [2] has the same target. The source holds these as a separate data set.
Assay [3] shares this target. This is another data set of the same source.

Where two headings read alike, the source gives them in different places.

Chain of UniProt P0A7L0 (P0A7L0 whole entry, looked up, one chain of several): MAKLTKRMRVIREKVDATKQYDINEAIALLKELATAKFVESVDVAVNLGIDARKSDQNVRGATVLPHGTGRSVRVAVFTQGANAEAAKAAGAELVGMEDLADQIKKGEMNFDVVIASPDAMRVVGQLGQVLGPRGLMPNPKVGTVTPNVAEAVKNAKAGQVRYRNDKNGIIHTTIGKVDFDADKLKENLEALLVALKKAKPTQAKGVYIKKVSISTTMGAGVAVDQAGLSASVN

Take “EQ2-Uup (E. coli Uup with both catalytic glutamates changed to glutamine) (from UniProt P43672 1-635) (enzyme)”: the Kd is less than 6 µM in assay [1] and 1000 nM in assay [2]. Turning to “EQ2-EttA (E. coli EttA with both catalytic glutamates changed to glutamine) (from UniProt P0A9W3 1-555) (enzyme)”, the dissociation constant Kd in assay [1] is less than 6 µM. Consider “EQ2-YheS (E. coli YheS with both catalytic glutamates changed to glutamine) (from UniProt P63389 1-637) (enzyme)”, for which the dissociation constant (Kd) in assay [1] is less than 6 µM; in assay [3] it was less than 1000 nM. Regarding “EQ2-YbiT (E. coli YbiT with both catalytic glutamates changed to glutamine) (from UniProt P0A9U3 1-530) (enzyme)”, the Kd in assay [1] was less than 6 µM.

As usually defined, the Kd is the equilibrium constant for the complex coming apart. Read a low Kd as higher affinity.

(Values after doi:10.1101/2023.06.11.543863.)
